Data from publication PMC10974336, “Characterization of a Novel Hyperthermophilic GH1 β-Glucosidase from Acidilobus sp. and Its Application in the Hydrolysis of Soybean Isoflavone Glycosides” (Microorganisms, 2024).

How the values were obtained:
purified protein = substrate: O=[N+]([O-])c1ccc(O[C@@H]2O[C@H](CO)[C@@H](O)[C@H](O)[C@H]2O)cc1; assay: purified protein; assay type: biochemical, Acidilobus sp. 7A; settings: pH 5.0 sodium citrate, 100 °C, pNPG 0.2 to 2 mM
[1] = substrate: O=[N+]([O-])c1ccc(O[C@@H]2O[C@H](CO)[C@@H](O)[C@H](O)[C@H]2O)cc1; assay: cells, lysate or membranes; assay type: biochemical, Acidilobus sp. 7A; settings: crude enzyme, mutant BglAcN, 30 bp deletion, printed as nine residues (…) at positions 298 to 307, pH 5.0

B1: BglAc (Acidilobus sp. 7A) (protein)
chain: MTVSFPKGFLFGWSQAGFQSEMGTPGSEDPNSDWYAWVHDRENIASGLVSGDLPENGPGYWGNYRRFHDAAQAMGLSAARIGVEWSRIFPKPTFDVKVHADVRGEEVASVDVSEQALEQLDRLANREAVNHYREMFSDLRSRGITFILNLYHWPLPLWLHDPIAIRRGNLSAPSGWLDVRAVVEFAKFAAYVAWKLDDLVYMYSTMNEPNVVWSHGFTQPKSGFPPGYLCFECSGKAMKNLLQAHARAYDIVKSMTKKPVGVIYATADWTPLTESEADRAAAEAAKAADRWAFFDMLSKGSPRDDLRGRLDWIGVNYYSRLVVRAGRSGFQVIPGYGFACEPNSVSPAGRPCSDFGWEFYPEGLYHALKDYWERYHLPLMVTENGAADEGDYLRPYYLVSHIYQVHRAMQEEVNVTGYLHWSLADNYEWASGFGKRFGLLMVDYETKRLYWRPSAFIYREIAKNNAITDEVEHLNRVPPLKPLRK
notes: N-terminal 6xHis tag, pET-30a(+) NdeI/EcoRI, E. coli BL21(DE3), Ni-NTA; residues Glu208, Glu383, Gln19, His152, Asn207, Glu428, Trp429
Km (purified protein): 3.41 mM | Vmax (purified protein): 474 µmol/min/mg | kcat (purified protein): 418 s⁻¹ | kcat/Km (purified protein): 123000 M⁻¹ s⁻¹

B2: BglAc (Acidilobus sp. 7A; DEL298-307) (protein)
chain: MTVSFPKGFLFGWSQAGFQSEMGTPGSEDPNSDWYAWVHDRENIASGLVSGDLPENGPGYWGNYRRFHDAAQAMGLSAARIGVEWSRIFPKPTFDVKVHADVRGEEVASVDVSEQALEQLDRLANREAVNHYREMFSDLRSRGITFILNLYHWPLPLWLHDPIAIRRGNLSAPSGWLDVRAVVEFAKFAAYVAWKLDDLVYMYSTMNEPNVVWSHGFTQPKSGFPPGYLCFECSGKAMKNLLQAHARAYDIVKSMTKKPVGVIYATADWTPLTESEADRAAAEAAKAADRWAFFDMLGRLDWIGVNYYSRLVVRAGRSGFQVIPGYGFACEPNSVSPAGRPCSDFGWEFYPEGLYHALKDYWERYHLPLMVTENGAADEGDYLRPYYLVSHIYQVHRAMQEEVNVTGYLHWSLADNYEWASGFGKRFGLLMVDYETKRLYWRPSAFIYREIAKNNAITDEVEHLNRVPPLKPLRK
notes: as for B1
Km [1]: 8.58 mM | Vmax [1]: 288 µmol/min/mg | kcat [1]: 260 s⁻¹ | kcat/Km [1]: 30300 M⁻¹ s⁻¹
